Read-outs that look alike come from different tables or passages of the source. *1 amine or outer side, *2 acyl side, *3 side chain or, on linkers, in order; H or OH if unused. Bridges are numbered along the chain shown (N, C = ends). [ ]: non-standard residue; d: D form. The star is where a group is joined. C20 diacid = O=C(O)CCCCCCCCCCCCCCCCCCC(=O)*; γGlu = O=C(O)[C@H](CCC(=O)[*:2])N[*:1]; Hyp = O=C(O)[C@@H]1C[C@@H](O)CN1; NMeI = CC[C@H](C)[C@H](NC)C(=O)O; Aad = N[C@@H](CCCC(=O)O)C(=O)O; Orn = NCCC[C@H](N)C(=O)O; Sar = CNCC(=O)O
B1: [19CD]-isoGlu-R-C( )-GTAT-C( )-ATERLAHFLTRSSF-Gly(Me)-A-Ile(Me)-LSSTEVGS-Orn-TP-NH2 (Compd. 47) (peptide)
peptide: {C20 diacid}-[γGlu]RCGTATCATERLAHFLTRSSF[Sar]A[NMeI]LSSTEVGS[Orn]TP-NH2
modifications: disulfide 3-8
SMILES: CC[C@H](C)[C@@H](C(=O)N[C@@H](CC(C)C)C(=O)N[C@@H](CO)C(=O)N[C@@H](CO)C(=O)N[C@H](C(=O)N[C@@H](CCC(=O)O)C(=O)N[C@H](C(=O)NCC(=O)N[C@@H](CO)C(=O)N[C@@H](CCCN)C(=O)N[C@H](C(=O)N1CCC[C@H]1C(N)=O)[C@@H](C)O)C(C)C)[C@@H](C)O)N(C)C(=O)[C@H](C)NC(=O)CN(C)C(=O)[C@H](Cc1ccccc1)NC(=O)[C@H](CO)NC(=O)[C@H](CO)NC(=O)[C@H](CCCNC(=N)N)NC(=O)[C@@H](NC(=O)[C@H](CC(C)C)NC(=O)[C@H](Cc1ccccc1)NC(=O)[C@H](Cc1c[nH]cn1)NC(=O)[C@H](C)NC(=O)[C@H](CC(C)C)NC(=O)[C@H](CCCNC(=N)N)NC(=O)[C@H](CCC(=O)O)NC(=O)[C@@H](NC(=O)[C@H](C)NC(=O)[C@@H]1CSSC[C@H](NC(=O)[C@H](CCCNC(=N)N)NC(=O)CC[C@H](NC(=O)CCCCCCCCCCCCCCCCCCC(=O)O)C(=O)O)C(=O)NCC(=O)N[C@@H]([C@@H](C)O)C(=O)N[C@@H](C)C(=O)N[C@@H]([C@@H](C)O)C(=O)N1)[C@@H](C)O)[C@@H](C)O
B2: [19CD]-isoGlu-R-C( )-NTAT-C( )-ATQRLADFLQRSSF-Gly(Me)-A-Ile(Me)-LSSTEVGSNT-Hyp-NH2 (Compd. 49) (peptide)
peptide: {C20 diacid-γGlu}-RCNTATCATQRLADFLQRSSF[Sar]A[NMeI]LSSTEVGSNT[Hyp]-NH2
modifications: disulfide 2-7
SMILES: CC[C@H](C)[C@@H](C(=O)N[C@@H](CC(C)C)C(=O)N[C@@H](CO)C(=O)N[C@@H](CO)C(=O)N[C@H](C(=O)N[C@@H](CCC(=O)O)C(=O)N[C@H](C(=O)NCC(=O)N[C@@H](CO)C(=O)N[C@@H](CC(N)=O)C(=O)N[C@H](C(=O)N1C[C@H](O)C[C@H]1C(N)=O)[C@@H](C)O)C(C)C)[C@@H](C)O)N(C)C(=O)[C@H](C)NC(=O)CN(C)C(=O)[C@H](Cc1ccccc1)NC(=O)[C@H](CO)NC(=O)[C@H](CO)NC(=O)[C@H](CCCNC(=N)N)NC(=O)[C@H](CCC(N)=O)NC(=O)[C@H](CC(C)C)NC(=O)[C@H](Cc1ccccc1)NC(=O)[C@H](CC(=O)O)NC(=O)[C@H](C)NC(=O)[C@H](CC(C)C)NC(=O)[C@H](CCCNC(=N)N)NC(=O)[C@H](CCC(N)=O)NC(=O)[C@@H](NC(=O)[C@H](C)NC(=O)[C@@H]1CSSC[C@H](NC(=O)[C@H](CCCNC(=N)N)NC(=O)CC[C@H](NC(=O)CCCCCCCCCCCCCCCCCCC(=O)O)C(=O)O)C(=O)N[C@@H](CC(N)=O)C(=O)N[C@@H]([C@@H](C)O)C(=O)N[C@@H](C)C(=O)N[C@@H]([C@@H](C)O)C(=O)N1)[C@@H](C)O
B3: [19CD]-isoGlu-R-C( )-QTAT-C( )-ATERLAHFLQRSSNNF-Gly(Me)-A-Ile(Me)-LSSTEVGSNT-Hyp-NH2 (Compd. 99) (peptide)
peptide: {C20 diacid-γGlu}-RCQTATCATERLAHFLQRSSNNF[Sar]A[NMeI]LSSTEVGSNT[Hyp]-NH2
modifications: disulfide 2-7
SMILES: CC[C@H](C)[C@@H](C(=O)N[C@@H](CC(C)C)C(=O)N[C@@H](CO)C(=O)N[C@@H](CO)C(=O)N[C@H](C(=O)N[C@@H](CCC(=O)O)C(=O)N[C@H](C(=O)NCC(=O)N[C@@H](CO)C(=O)N[C@@H](CC(N)=O)C(=O)N[C@H](C(=O)N1C[C@H](O)C[C@H]1C(N)=O)[C@@H](C)O)C(C)C)[C@@H](C)O)N(C)C(=O)[C@H](C)NC(=O)CN(C)C(=O)[C@H](Cc1ccccc1)NC(=O)[C@H](CC(N)=O)NC(=O)[C@H](CC(N)=O)NC(=O)[C@H](CO)NC(=O)[C@H](CO)NC(=O)[C@H](CCCNC(=N)N)NC(=O)[C@H](CCC(N)=O)NC(=O)[C@H](CC(C)C)NC(=O)[C@H](Cc1ccccc1)NC(=O)[C@H](Cc1c[nH]cn1)NC(=O)[C@H](C)NC(=O)[C@H](CC(C)C)NC(=O)[C@H](CCCNC(=N)N)NC(=O)[C@H](CCC(=O)O)NC(=O)[C@@H](NC(=O)[C@H](C)NC(=O)[C@@H]1CSSC[C@H](NC(=O)[C@H](CCCNC(=N)N)NC(=O)CC[C@H](NC(=O)CCCCCCCCCCCCCCCCCCC(=O)O)C(=O)O)C(=O)N[C@@H](CCC(N)=O)C(=O)N[C@@H]([C@@H](C)O)C(=O)N[C@@H](C)C(=O)N[C@@H]([C@@H](C)O)C(=O)N1)[C@@H](C)O
B4: [19CD]-isoGlu-R-C( )-GTAT-C( )-ATERLAHFLTRSSF-Gly(Me)-A-Ile(Me)-LSSTEVGSTT-Hyp-NH2 (Compd. 48) (peptide)
peptide: {C20 diacid}-[γGlu]RCGTATCATERLAHFLTRSSF[Sar]A[NMeI]LSSTEVGSTT[Hyp]-NH2
modifications: disulfide 3-8
SMILES: CC[C@H](C)[C@@H](C(=O)N[C@@H](CC(C)C)C(=O)N[C@@H](CO)C(=O)N[C@@H](CO)C(=O)N[C@H](C(=O)N[C@@H](CCC(=O)O)C(=O)N[C@H](C(=O)NCC(=O)N[C@@H](CO)C(=O)N[C@H](C(=O)N[C@H](C(=O)N1C[C@H](O)C[C@H]1C(N)=O)[C@@H](C)O)[C@@H](C)O)C(C)C)[C@@H](C)O)N(C)C(=O)[C@H](C)NC(=O)CN(C)C(=O)[C@H](Cc1ccccc1)NC(=O)[C@H](CO)NC(=O)[C@H](CO)NC(=O)[C@H](CCCNC(=N)N)NC(=O)[C@@H](NC(=O)[C@H](CC(C)C)NC(=O)[C@H](Cc1ccccc1)NC(=O)[C@H](Cc1c[nH]cn1)NC(=O)[C@H](C)NC(=O)[C@H](CC(C)C)NC(=O)[C@H](CCCNC(=N)N)NC(=O)[C@H](CCC(=O)O)NC(=O)[C@@H](NC(=O)[C@H](C)NC(=O)[C@@H]1CSSC[C@H](NC(=O)[C@H](CCCNC(=N)N)NC(=O)CC[C@H](NC(=O)CCCCCCCCCCCCCCCCCCC(=O)O)C(=O)O)C(=O)NCC(=O)N[C@@H]([C@@H](C)O)C(=O)N[C@@H](C)C(=O)N[C@@H]([C@@H](C)O)C(=O)N1)[C@@H](C)O)[C@@H](C)O
B5: [19CD]-isoGlu-R-C( )-GTAT-C( )-ATERLA-Aad-FLQRSSF-Gly(Me)-A-Ile(Me)-LSSTEVGSNT-Hyp-NH2 (Compd. 55) (peptide)
peptide: {C20 diacid}-[γGlu]RCGTATCATERLA[Aad]FLQRSSF[Sar]A[NMeI]LSSTEVGSNT[Hyp]-NH2
modifications: disulfide 3-8
SMILES: CC[C@H](C)[C@@H](C(=O)N[C@@H](CC(C)C)C(=O)N[C@@H](CO)C(=O)N[C@@H](CO)C(=O)N[C@H](C(=O)N[C@@H](CCC(=O)O)C(=O)N[C@H](C(=O)NCC(=O)N[C@@H](CO)C(=O)N[C@@H](CC(N)=O)C(=O)N[C@H](C(=O)N1C[C@H](O)C[C@H]1C(N)=O)[C@@H](C)O)C(C)C)[C@@H](C)O)N(C)C(=O)[C@H](C)NC(=O)CN(C)C(=O)[C@H](Cc1ccccc1)NC(=O)[C@H](CO)NC(=O)[C@H](CO)NC(=O)[C@H](CCCNC(=N)N)NC(=O)[C@H](CCC(N)=O)NC(=O)[C@H](CC(C)C)NC(=O)[C@H](Cc1ccccc1)NC(=O)[C@H](CCCC(=O)O)NC(=O)[C@H](C)NC(=O)[C@H](CC(C)C)NC(=O)[C@H](CCCNC(=N)N)NC(=O)[C@H](CCC(=O)O)NC(=O)[C@@H](NC(=O)[C@H](C)NC(=O)[C@@H]1CSSC[C@H](NC(=O)[C@H](CCCNC(=N)N)NC(=O)CC[C@H](NC(=O)CCCCCCCCCCCCCCCCCCC(=O)O)C(=O)O)C(=O)NCC(=O)N[C@@H]([C@@H](C)O)C(=O)N[C@@H](C)C(=O)N[C@@H]([C@@H](C)O)C(=O)N1)[C@@H](C)O

Experiments:
[1] = biological target: T1, human amylin receptor 3 (hAMYR3), hCTR2 co-expressed with human receptor activity modifying protein 3 (hRAMP3) (human, UniProt P30988 25-474; O60896 24-148); assay: cell-based or functional assay
T1 sequence (looked up) 1: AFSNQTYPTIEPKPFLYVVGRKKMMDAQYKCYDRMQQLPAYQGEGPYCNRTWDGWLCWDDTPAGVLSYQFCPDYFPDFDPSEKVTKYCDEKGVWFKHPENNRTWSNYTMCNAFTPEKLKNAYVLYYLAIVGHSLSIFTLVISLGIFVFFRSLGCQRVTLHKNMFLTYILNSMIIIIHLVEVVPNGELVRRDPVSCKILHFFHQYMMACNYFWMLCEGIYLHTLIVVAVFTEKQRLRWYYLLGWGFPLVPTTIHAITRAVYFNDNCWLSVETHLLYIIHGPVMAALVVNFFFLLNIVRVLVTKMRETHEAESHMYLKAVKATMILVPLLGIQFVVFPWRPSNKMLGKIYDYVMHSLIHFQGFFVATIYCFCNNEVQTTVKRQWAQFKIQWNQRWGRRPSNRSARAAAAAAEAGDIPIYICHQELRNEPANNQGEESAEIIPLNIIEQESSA
T1 sequence (looked up) 2: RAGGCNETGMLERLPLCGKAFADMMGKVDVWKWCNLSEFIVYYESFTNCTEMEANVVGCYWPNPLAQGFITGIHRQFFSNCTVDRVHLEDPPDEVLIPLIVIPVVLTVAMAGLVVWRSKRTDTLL

[2] = biological target: T1, human amylin receptor 3 (hAMYR3), hCTR2 …; assay: cell-based or functional assay; remark: listed apart in the source

Binder | hAMYR3 EC50 (nM); cAMP induction [1] | hAMYR3 EC50 (nM); cAMP induction [2]
B1 | 0.19 nM | –
B2 | 0.15 nM | –
B3 | – | 0.59 nM
B4 | 0.26 nM | –
B5 | 0.08 nM | 0.08 nM
